Source: PMC8298264, “Function of cofactor Akirin2 in the regulation of gene expression in model human neutrophil-like HL60 cells” (Bioscience Reports, 2021)

Test system: human HL60 cells
Experiment: SWATH-MS proteomics, differential protein representation, akirin2 KO vs WT HL60 cells
Format: cell-based
Conditions: akirin2 KO vs WT HL60 cells; sheet "Under-represented in KO"
Method in brief: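 Proteins from WT and akirin2 KO HL60 cells (n=3 biological replicates) were FASP trypsin-digested and analyzed by SWATH-MS DIA with variable windows against an IDA-derived spectral library. Identifications at 1% global FDR; quantities normalized to total area sums of all detected proteins.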

Molecule	Fold Change	Log (Fold Change)
sp¦P55060¦XPO2_HUMAN (protein, UniProt P55060 1-971, looked up) Exportin-2: MELSDANLQTLTEYLKKTLDPDPAIRRPAEKFLESVEGNQNYPLLLLTLLEKSQDNVIKVCASVTFKNYIKRNWRIVEDEPNKICEADRVAIKANIVHLMLSSPEQIQKQLSDAISIIGREDFPQKWPDLLTEMVNRFQSGDFHVINGVLRTAHSLFKRYRHEFKSNELWTEIKLVLDAFALPLTNLFKATIELCSTHANDASALRILFSSLILISKLFYSLNFQDLPEFFEDNMETWMNNFHTLLTLDNKLLQTDDEEEAGLLELLKSQICDNAALYAQKYDEEFQRYLPRFVTAIWNLLVTTGQEVKYDLLVSNAIQFLASVCERPHYKNLFEDQNTLTSICEKVIVPNMEFRAADEEAFEDNSEEYIRRDLEGSDIDTRRRAACDLVRGLCKFFEGPVTGIFSGYVNSMLQEYAKNPSVNWKHKDAAIYLVTSLASKAQTQKHGITQANELVNLTEFFVNHILPDLKSANVNEFPVLKADGIKYIMIFRNQVPKEHLLVSIPLLINHLQAESIVVHTYAAHALERLFTMRGPNNATLFTAAEIAPFVEILLTNLFKALTLPGSSENEYIMKAIMRSFSLLQEAIIPYIPTLITQLTQKLLAVSKNPSKPHFNHYMFEAICLSIRITCKANPAAVVNFEEALFLVFTEILQNDVQEFIPYVFQVMSLLLETHKNDIPSSYMALFPHLLQPVLWERTGNIPALVRLLQAFLERGSNTIASAAADKIPGLLGVFQKLIASKANDHQGFYLLNSIIEHMPPESVDQYRKQIFILLFQRLQNSKTTKFIKSFLVFINLYCIKYGALALQEIFDGIQPKMFGMVLEKIIIPEIQKVSGNVEKKICAVGITKLLTECPPMMDTEYTKLWTPLLQSLIGLFELPEDDTIPDEEHFIDIEDTPGYQTAFSQLAFAGKKEHDPVGQMVNNPKIHLAQSLHKLSTACPGRVPSMVSTSLNAEALQYLQGYLQAASVTLL	0.6591	-0.1811
sp¦Q9Y2X3¦NOP58_HUMAN (protein, UniProt Q9Y2X3 1-529, looked up) Nucleolar protein 58: MLVLFETSVGYAIFKVLNEKKLQEVDSLWKEFETPEKANKIVKLKHFEKFQDTAEALAAFTALMEGKINKQLKKVLKKIVKEAHEPLAVADAKLGGVIKEKLNLSCIHSPVVNELMRGIRSQMDGLIPGVEPREMAAMCLGLAHSLSRYRLKFSADKVDTMIVQAISLLDDLDKELNNYIMRCREWYGWHFPELGKIISDNLTYCKCLQKVGDRKNYASAKLSELLPEEVEAEVKAAAEISMGTEVSEEDICNILHLCTQVIEISEYRTQLYEYLQNRMMAIAPNVTVMVGELVGARLIAHAGSLLNLAKHAASTVQILGAEKALFRALKSRRDTPKYGLIYHASLVGQTSPKHKGKISRMLAAKTVLAIRYDAFGEDSSSAMGVENRAKLEARLRTLEDRGIRKISGTGKALAKTEKYEHKSEVKTYDPSGDSTLPTCSKKRKIEQVDKEDEITEKKAKKAKIKVKVEEEEEEKVAEEEETSVKKKKKRGKKKHIKEEPLSEEEPCTSTAIASPEKKKKKKKKRENED	0.6507	-0.1866
sp¦Q92973¦TNPO1_HUMAN (protein, UniProt Q92973 1-898, looked up) Transportin-1: MVWDRQTKMEYEWKPDEQGLQQILQLLKESQSPDTTIQRTVQQKLEQLNQYPDFNNYLIFVLTKLKSEDEPTRSLSGLILKNNVKAHFQNFPNGVTDFIKSECLNNIGDSSPLIRATVGILITTIASKGELQNWPDLLPKLCSLLDSEDYNTCEGAFGALQKICEDSAEILDSDVLDRPLNIMIPKFLQFFKHSSPKIRSHAVACVNQFIISRTQALMLHIDSFIENLFALAGDEEPEVRKNVCRALVMLLEVRMDRLLPHMHNIVEYMLQRTQDQDENVALEACEFWLTLAEQPICKDVLVRHLPKLIPVLVNGMKYSDIDIILLKGDVEEDETIPDSEQDIRPRFHRSRTVAQQHDEDGIEEEDDDDDEIDDDDTISDWNLRKCSAAALDVLANVYRDELLPHILPLLKELLFHHEWVVKESGILVLGAIAEGCMQGMIPYLPELIPHLIQCLSDKKALVRSITCWTLSRYAHWVVSQPPDTYLKPLMTELLKRILDSNKRVQEAACSAFATLEEEACTELVPYLAYILDTLVFAFSKYQHKNLLILYDAIGTLADSVGHHLNKPEYIQMLMPPLIQKWNMLKDEDKDLFPLLECLSSVATALQSGFLPYCEPVYQRCVNLVQKTLAQAMLNNAQPDQYEAPDKDFMIVALDLLSGLAEGLGGNIEQLVARSNILTLMYQCMQDKMPEVRQSSFALLGDLTKACFQHVKPCIADFMPILGTNLNPEFISVCNNATWAIGEISIQMGIEMQPYIPMVLHQLVEIINRPNTPKTLLENTAITIGRLGYVCPQEVAPMLQQFIRPWCTSLRNIRDNEEKDSAFRGICTMISVNPSGVIQDFIFFCDAVASWINPKDDLRDMFCKILHGFKNQVGDENWRRFSDQFPLPLKERLAAFYGV	0.6517	-0.186
sp¦O95373¦IPO7_HUMAN (protein, UniProt O95373 1-1038, looked up) Importin-7: MDPNTIIEALRGTMDPALREAAERQLNEAHKSLNFVSTLLQITMSEQLDLPVRQAGVIYLKNMITQYWPDRETAPGDISPYTIPEEDRHCIRENIVEAIIHSPELIRVQLTTCIHHIIKHDYPSRWTAIVDKIGFYLQSDNSACWLGILLCLYQLVKNYEYKKPEERSPLVAAMQHFLPVLKDRFIQLLSDQSDQSVLIQKQIFKIFYALVQYTLPLELINQQNLTEWIEILKTVVNRDVPNETLQVEEDDRPELPWWKCKKWALHILARLFERYGSPGNVSKEYNEFAEVFLKAFAVGVQQVLLKVLYQYKEKQYMAPRVLQQTLNYINQGVSHALTWKNLKPHIQGIIQDVIFPLMCYTDADEELWQEDPYEYIRMKFDVFEDFISPTTAAQTLLFTACSKRKEVLQKTMGFCYQILTEPNADPRKKDGALHMIGSLAEILLKKKIYKDQMEYMLQNHVFPLFSSELGYMRARACWVLHYFCEVKFKSDQNLQTALELTRRCLIDDREMPVKVEAAIALQVLISNQEKAKEYITPFIRPVMQALLHIIRETENDDLTNVIQKMICEYSEEVTPIAVEMTQHLAMTFNQVIQTGPDEEGSDDKAVTAMGILNTIDTLLSVVEDHKEITQQLEGICLQVIGTVLQQHVLEFYEEIFSLAHSLTCQQVSPQMWQLLPLVFEVFQQDGFDYFTDMMPLLHNYVTVDTDTLLSDTKYLEMIYSMCKKVLTGVAGEDAECHAAKLLEVIILQCKGRGIDQCIPLFVEAALERLTREVKTSELRTMCLQVAIAALYYNPHLLLNTLENLRFPNNVEPVTNHFITQWLNDVDCFLGLHDRKMCVLGLCALIDMEQIPQVLNQVSGQILPAFILLFNGLKRAYACHAEHENDSDDDDEAEDDDETEELGSDEDDIDEDGQEYLEILAKQAGEDGDDEDWEEDDAEETALEGYSTIIDDEDNPVDEYQIFKAIFQTIQNRNPVWYQALTHGLNEEQRKQLQDIATLADQRRAAHESKMIEKHGGYKFSAPVVPSSFNFGGPAPGMN	0.28	-0.5528
sp¦Q13637¦RAB32_HUMAN (protein, UniProt Q13637 2-225, looked up) Ras-related protein Rab-32: AGGGAGDPGLGAAAAPAPETREHLFKVLVIGELGVGKTSIIKRYVHQLFSQHYRATIGVDFALKVLNWDSRTLVRLQLWDIAGQERFGNMTRVYYKEAVGAFVVFDISRSSTFEAVLKWKSDLDSKVHLPNGSPIPAVLLANKCDQNKDSSQSPSQVDQFCKEHGFAGWFETSAKDNINIEEAARFLVEKILVNHQSFPNEENDVDKIKLDQETLRAENKSQCC	0.6519	-0.1858
sp¦Q13895¦BYST_HUMAN (protein, UniProt Q13895 1-437, looked up) Bystin: MPKFKAARGVGGQEKHAPLADQILAGNAVRAGVREKRRGRGTGEAEEEYVGPRLSRRILQQARQQQEELEAEHGTGDKPAAPRERTTRLGPRMPQDGSDDEDEEWPTLEKAATMTAAGHHAEVVVDPEDERAIEMFMNKNPPARRTLADIIMEKLTEKQTEVETVMSEVSGFPMPQLDPRVLEVYRGVREVLSKYRSGKLPKAFKIIPALSNWEQILYVTEPEAWTAAAMYQATRIFASNLKERMAQRFYNLVLLPRVRDDVAEYKRLNFHLYMALKKALFKPGAWFKGILIPLCESGTCTLREAIIVGSIITKCSIPVLHSSAAMLKIAEMEYSGANSIFLRLLLDKKYALPYRVLDALVFHFLGFRTEKRELPVLWHQCLLTLVQRYKADLATDQKEALLELLRLQPHPQLSPEIRRELQSAVPRDVEDVPITVE	0.6611	-0.1797
sp¦Q8TEX9¦IPO4_HUMAN (protein, UniProt Q8TEX9 1-1081, looked up) Importin-4: MESAGLEQLLRELLLPDTERIRRATEQLQIVLRAPAALPALCDLLASAADPQIRQFAAVLTRRRLNTRWRRLAAEQRESLKSLILTALQRETEHCVSLSLAQLSATIFRKEGLEAWPQLLQLLQHSTHSPHSPEREMGLLLLSVVVTSRPEAFQPHHRELLRLLNETLGEVGSPGLLFYSLRTLTTMAPYLSTEDVPLARMLVPKLIMAMQTLIPIDEAKACEALEALDELLESEVPVITPYLSEVLTFCLEVARNVALGNAIRIRILCCLTFLVKVKSKALLKNRLLPPLLHTLFPIVAAEPPPGQLDPEDQDSEEEELEIELMGETPKHFAVQVVDMLALHLPPEKLCPQLMPMLEEALRSESPYQRKAGLLVLAVLSDGAGDHIRQRLLPPLLQIVCKGLEDPSQVVRNAALFALGQFSENLQPHISSYSREVMPLLLAYLKSVPLGHTHHLAKACYALENFVENLGPKVQPYLPELMECMLQLLRNPSSPRAKELAVSALGAIATAAQASLLPYFPAIMEHLREFLLTGREDLQPVQIQSLETLGVLARAVGEPMRPLAEECCQLGLGLCDQVDDPDLRRCTYSLFAALSGLMGEGLAPHLEQITTLMLLSLRSTEGIVPQYDGSSSFLLFDDESDGEEEEELMDEDVEEEDDSEISGYSVENAFFDEKEDTCAAVGEISVNTSVAFLPYMESVFEEVFKLLECPHLNVRKAAHEALGQFCCALHKACQSCPSEPNTAALQAALARVVPSYMQAVNRERERQVVMAVLEALTGVLRSCGTLTLKPPGRLAELCGVLKAVLQRKTACQDTDEEEEEEDDDQAEYDAMLLEHAGEAIPALAAAAGGDSFAPFFAGFLPLLVCKTKQGCTVAEKSFAVGTLAETIQGLGAASAQFVSRLLPVLLSTAQEADPEVRSNAIFGMGVLAEHGGHPAQEHFPKLLGLLFPLLARERHDRVRDNICGALARLLMASPTRKPEPQVLAALLHALPLKEDLEEWVTIGRLFSFLYQSSPDQVIDVAPELLRICSLILADNKIPPDTKAALLLLLTFLAKQHTDSFQAALGSLPVDKAQELQAVLGLS	0.285	-0.5451
sp¦P21912¦SDHB_HUMAN (protein, UniProt P21912 29-280, looked up) Succinate dehydrogenase …: AQTAAATAPRIKKFAIYRWDPDKAGDKPHMQTYEVDLNKCGPMVLDALIKIKNEVDSTLTFRRSCREGICGSCAMNINGGNTLACTRRIDTNLNKVSKIYPLPHMYVIKDLVPDLSNFYAQYKSIEPYLKKKDESQEGKQQYLQSIEEREKLDGLYECILCACCSTSCPSYWWNGDKYLGPAVLMQAYRWMIDSRDDFTEERLAKLQDPFSLYRCHTIMNCTRTCPKGLNPGKAIAEIKKMMATYKEKKASV	0.6622	-0.179
